Measurements published in paper PMC5852461 (Biochemistry, 2018).
Each block holds one molecule with its values, some of them ahead of it.

Columns and labels:
[1] = target: TatBC–strepII–His6 complex (E. coli) (UniProt P69425); assay: SPR; Biacore T200; TatBC complex captured (about 300 RU) on polyclonal TatB antibodies coupled to a CM5 chip; precursor as analyte at 1.9–30 μM, injected for 3 min; 25 °C; 20 mM MOPS-NaOH, 200 mM NaCl, 1 mM EDTA, 0.01% GDN, pH 8; 1:1 binding model
[2] = target: TatBC–His6 complex (GDN-solubilized, purified) (E. coli) (UniProt P69425); assay: ITC; TatBC–His6 (45 μM) in the cell; titrant 150 μM HiPIP or 85 μM TorA signal peptide; 25 °C; 20 mM MOPS-NaOH, 200 mM NaCl, 1 mM EDTA, 0.01% GDN, pH 8; one-site model; molar ratio counted per TatC–His6
[3] = target: T1, TatBC–His6 complex (GDN-solubilized, purified) (E. coli, UniProt P69425 1-171; P69423 1-258); assay: as above; conditions: both partners purified
T1 sequence (looked up) 1: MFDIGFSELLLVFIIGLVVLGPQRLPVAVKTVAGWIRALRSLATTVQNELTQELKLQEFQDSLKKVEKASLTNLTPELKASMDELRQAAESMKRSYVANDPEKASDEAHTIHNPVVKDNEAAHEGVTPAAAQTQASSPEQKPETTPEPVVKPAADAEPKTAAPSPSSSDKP
T1 sequence (looked up) 2: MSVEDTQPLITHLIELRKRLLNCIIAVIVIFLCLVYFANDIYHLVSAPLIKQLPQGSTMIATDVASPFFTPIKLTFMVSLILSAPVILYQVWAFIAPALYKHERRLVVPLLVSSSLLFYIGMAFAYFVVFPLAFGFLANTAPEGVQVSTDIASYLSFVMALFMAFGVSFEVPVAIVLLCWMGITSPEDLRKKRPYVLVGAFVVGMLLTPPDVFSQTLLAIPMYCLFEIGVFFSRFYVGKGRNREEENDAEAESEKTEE

Kd [1]: 4.5 µM | koff [1]: 0.0018 s⁻¹ | kon [1]: 400 M⁻¹ s⁻¹
Molecule: E. coli CueO precursor, hexahistidine-tagged (from UniProt P36649 29-516) (natural protein)

Kd [2]: 6 µM | stoichiometry N (HiPIP per TatC) [2]: 0.33
Molecule: high-potential iron–sulfur protein (HiPIP) precursor from Acidithiobacillus ferrooxidans, His6-tagged (natural protein)

Kd [3]: ~0.5 µM | stoichiometry N [3]: 0.44 peptide per TatC
Molecule: SRRRFLAQLGGLTVAGMLGPSLLTPRR [TorA signal peptide (residues 10–36)]
